# Test results published in patent US20180214548A1 (SHANGHAI YUNYI HEALTHCARE AND TECHNOLOGY, published 2018).
# B1: chimeric anti-PD-1 antibody 21G8F11 (antibody, V domains shown)
# VH: EVQLLESGGGLAQPGGSLRLSCAASGFSFNTYLMHWVRQAPGKGLEWVSAISGGGGNTYYADSVKGRFTISRDNSKNTLYLQMNSLRAEDTAVYYCAKENRIPVAPFDYWGQGTLVTVSS
# VL: DIQMTQSPSTLSASVGDRVTITCRASQSISTWLAWYQQKPGKAPKLLIYKASSLESGVPSRFSGSGSGTEFTLTISSLQPDDLATYYCQQYNSFSWTFGQGTKVEIK
# notes: Purified from hybridoma of Harbour H2L2 mice: human variable regions, rat constant regions
# B2: chimeric anti-PD-1 antibody 32B5C7 (antibody, V domains shown)
# VH: EVQLLESGGGLVQPGGSLRLSCAASGFTFSSYAMSWVRQAPGKGLEWVSTISGSGGTTYYADSVKGRFTISRDNSKNTLYLQMNSLRAEDTAVYYCTLTGDPDYWGQGTLVTVSS
# VL: EIVLTQSPATLSLSPGERATLSCRASQSVSSYLAWYQQKPGQAPRLLIYDASKRATGIPARFSGSGSGTDFTLTISSLEPEDFAVYYCQQRNNWPLTFGGGTKVEIK
# notes: as for B1
# B3: chimeric anti-PD-1 antibody 76G5B3 (antibody, V domains shown)
# VH: QVQLVESGGGVVQPGRSLRLSCAASGFTFSDYGFHWVRQAPGKGLEWVAVIWYDGSNEYYTDSVKGRFTISRDNSKNTLYLQMNSLRAEDTAMYFCVVNPFDYWGQGTLVTVSS
# VL: DIQMTQSPSSLSAFVGDRVTITCRASQGINHYLAWYQQKPGKAPNLLILAASTLLSGVPSRFGGRGSGTDFTLIISSLQPEDVATYYCQKYDSAPYTFGQGTKLEIK
# notes: as for B1
# Target: T1, human PD-1^ECD-hFc protein (Immunogen A) (human, UniProt Q15116 25-167)
# T1 construct: Biotinylated for the Octet assay; also called PD-1-hFc; hPD-1^ECD-hFc; not shown: human IgG Fc fragment (hFc)
# Assay: ELISA, coated human PD-1ECD-hFc; antibody 0.01 nM
# Experimental: (§1) 100 uL of the diluted recombinant proteins were added to each well of 96-well plate. The plates were sealed with plastic film and incubated at 4° C. overnight. The plates were washed twice with wash buffer (PBS+0.01% (v/v) Tween20), and incubated with blocking buffer (PBS+0.01% (v/v) Tween20+1% (w/w) BSA) at room temperature for 2 hours. The blocking buffer was aspirated away, and 100 uL of purified anti-PD-1 antibodies were added to each well and incubated for 2 hours at 37° C. The plates were washed three times with wash buffer (PBS+0.01% (v/v) Tween20). HRP-conjugated secondary antibody (Sigma) was added to each well and incubated for 2 hours at 37° C. After the plates were washed three times with wash buffer, 100 uL TMB substrate was added to each well and incubated for 30 minutes at room temperature. 100 uL stop solution (0.1N HCl) was added to each well to stop the reaction. The absorbance at 450 nm was measured with an ELISA plate reader (384plus SpectraMax, Molecular Devices).
# T1 sequence (Q15116 25-167): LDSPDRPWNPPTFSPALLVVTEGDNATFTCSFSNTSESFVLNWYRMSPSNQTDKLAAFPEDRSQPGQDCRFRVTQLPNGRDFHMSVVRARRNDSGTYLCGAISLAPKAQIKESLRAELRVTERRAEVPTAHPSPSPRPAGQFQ
row,OD450 nm,Binder
1,0.669,B1
2,0.55,B2
3,0.65,B3

# Target: T2, full length human PD-1 on cells (human, UniProt Q15116 25-288)
# T2 construct: Also used here for PD-1 on human T cells/PBMC; also called CHO-K1-hPD-1; hPD-1
# Assay: cell-based receptor-ligand blocking, flow cytometry: CHO-K1-hPD-1 cells, blocked ligand biotinylated PD-L1-Fc, streptavidin-Alexa 488
# Experimental: CHO-K1-hPD-1 cells were cultured and expanded in T-75 culture flasks to 60-80% confluence. The culture media was aspirated, and the cells were washed twice with PBS. The cells were treated with TrypLE™ Express (Invitrogen) and collected. Trypsin was neutralized by the addition of 8 mL culture medium, and cell counts were determined. […] The cells were blocked for 15 minutes at 37° C. Meanwhile, the wells of 96-well round-bottom plates were blocked with 200 uL blocking buffer for 1 hour at 37° C. The blocking buffer was discarded, and 200 uL cells were dispensed to each well of the 96-well plates (2×10^5 cells/well). The plates were centrifuged at 500 g for 5 minutes, and the supernatants were discarded. The cells were resuspended in 100 uL antibody prepared in blocking buffer. […] The plates were incubated at 4° C. for 90 minutes and washed twice with 200 uL blocking buffer. […] The plates were washed three times with blocking buffer and resuspended in 200 uL blocking buffer. The mean fluorescence intensity (MFI) was determined using FACS Calibur (BD).
# T2 sequence (Q15116 25-288 limits assumed): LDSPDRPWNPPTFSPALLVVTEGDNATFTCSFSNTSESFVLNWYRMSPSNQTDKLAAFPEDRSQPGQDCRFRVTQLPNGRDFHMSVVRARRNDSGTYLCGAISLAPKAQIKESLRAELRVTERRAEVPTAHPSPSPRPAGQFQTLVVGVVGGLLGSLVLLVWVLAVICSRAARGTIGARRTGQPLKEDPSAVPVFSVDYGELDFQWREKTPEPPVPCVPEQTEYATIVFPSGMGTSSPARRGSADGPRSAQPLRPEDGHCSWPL
row,IC50 (read off the curve) [nM],Binder
1,~6,B1
2,~6,B2
3,~0.8,B3

# Target: T3, cyno PD-1^ECD-hFc protein (cyno monkey, UniProt B0LAJ3 25-167)
# T3 construct: Prepared by the method for Immunogen A; also called Cyno Monkey PD-1^ECD-hFc; cyno monkey PD-1-hFc; not shown: human IgG Fc fragment (hFc) and its junction to the ECD
# Assay: ELISA, coated cyno PD-1ECD-hFc; antibody 100 nM
# Experimental: as §1
# T3 sequence (B0LAJ3 entry or part of it limits assumed): as the sequence (Q15116 25-167) above, with D2E, P10A, V19L, T35A, Q75R counted along it
row,OD450 nm,Binder
1,2.61,B1
2,1.66,B2
3,1.89,B3

# Target: T1, human PD-1^ECD-hFc protein (Immunogen A)
# Assay: ELISA, coated human PD-1ECD-hFc; antibody 0.1 nM
# Experimental: as §1
row,OD450 nm,Binder
1,1.77,B1
2,2.11,B2
3,2.43,B3

# Target: T2, full length human PD-1 on cells
# Assay: flow cytometry, CHO-K1-hPD-1 cells; antibody 100 nM
# Description: CHO-K1 cells were stably transfected with pIRES plasmid containing the nucleic acid sequence encoding full length human PD-1 (see Example 2, step 2) to generate CHO-K1 cells stably expressing human PD-1 (herein referred to as CHO-K1-hPD-1 cells). Other CHO-K1 were stably transfected with pIRES plasmid containing the nucleic acid sequence encoding full length cyno PD-1 to generate CHO-K1 cells stably expressing cyno PD-1 (herein referred to as CHO-K1-cPD-1 cells). CHO-K1-hPD-1 and CHO-K1-cPD-1 cells were cultured and expanded in T-75 culture flasks to 90% confluence. The culture media was aspirated, and the cells were washed twice with HBSS (Hanks Balanced Salt Solution, Invitrogen). The cells were treated with enzyme-free cell dissociation solution (Versene solution, Invitrogen) and collected. The cells were then washed twice with HBSS, cell counts were determined, and cells were resuspended with HBSS at 2×10⁶ cells/mL. Goat serum was added to the cell suspension to a final concentration of 1%, and the cells were blocked for 30 minutes on ice and then washed twice with HBSS. The cells were collected after centrifugation and resuspended in FACS buffer (HBSS+1% BSA, v/v) at 2×10⁶ cells/mL. 100 uL of the cell suspension were then added to each well of 96-well plate. 100 uL of purified anti-PD-1 antibodies from Example 2 were added to each well of the 96-well plate and incubated for 2 hours on ice. […] The samples were washed three times with FACS buffer, and 100 uL fixation buffer (4% paraformaldehyde v/v) were added to each well and incubated for 10 minutes. The cells were then washed twice with FACS buffer and resuspended in 100 uL FACS buffer. The mean fluorescence intensity (MFI) was determined using FACS Calibur (BD), and the results are shown in FIGS. 7-8 and in Tables 10-11.
row,Mean fluorescence intensity,Binder
1,661,B1
2,253,B2
3,443,B3

# Target: T1, human PD-1^ECD-hFc protein (Immunogen A)
# Assay: ELISA, coated human PD-1ECD-hFc; antibody 1 nM
# Experimental: as §1
row,OD450 nm,Binder
1,2.83,B1
2,3.02,B2
3,3.07,B3

# Target: T1, human PD-1^ECD-hFc protein (Immunogen A)
# Assay: protein-based receptor-ligand blocking ELISA: coated PD-1ECD-hFc, blocked ligand biotinylated PD-L2ECD, streptavidin-HRP
# Experimental: Purified PD-1^ECD-hFc (Example 2) was diluted with PBS to a final concentration of 1.0 ug/mL, and 100 uL diluted PD-1^ECD-hFc were added to each well of a 96-well plate that was then sealed with plastic film and incubated at 4° C. overnight. The plate was washed twice with wash buffer (PBS+0.01% (v/v) Tween 20) and incubated with blocking buffer (PBS+[…]) at room temperature for 2 hours. The blocking buffer was aspirated, and 50 uL purified anti-PD-1 antibodies from Example 2 were added to each well of 96-well plate. […] The plate was washed three times with wash buffer (PBS+0.01% (v/v) Tween 20). 100 uL HRP-conjugated streptavidin (Sigma) were then added to each well and incubated at 37° C. for 2 hours. The plate was then washed three times with wash buffer, and 100 uL TMB substrate were added to each well. After 30 minutes of incubation at room temperature, the reaction was stopped by adding 100 uL stop solution (0.1N HCl). The absorbance at OD450 nm was measured with an ELISA plate reader (384plus SpectraMax, Molecular Devices).
row,IC50 (read off the curve),Binder
1,~0.6 µg/mL,B1
2,~2 nM,B2
3,~1 nM,B3

# Target: T3, cyno PD-1^ECD-hFc protein
# Assay: ELISA, coated cyno PD-1ECD-hFc; antibody 0.01 nM
# Experimental: as §1
row,OD450 nm,Binder
1,0.27,B1
2,0.1,B2
3,0.14,B3
